Among the data in US20220380478A1 (published 2022) are Kd values, retold here.

Where two headings read alike, the source gives them in different places.

As usually defined, the Kd is the constant that tells how readily two partners part at equilibrium. The low end stands for higher affinity, the high end for lower affinity.

In experiment [1] the target is T1, CD32aH (FcγRIIaH) (UniProt P12318 34-217).
T1 chain: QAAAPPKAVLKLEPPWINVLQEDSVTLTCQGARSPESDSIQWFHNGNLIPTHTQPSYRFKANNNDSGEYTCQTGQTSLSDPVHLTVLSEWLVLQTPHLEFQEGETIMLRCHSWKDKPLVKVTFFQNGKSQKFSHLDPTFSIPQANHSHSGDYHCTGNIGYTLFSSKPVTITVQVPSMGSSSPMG
The experiment in a line: SPR. On the technique in general: In SPR one partner is held on a chip, and binding of the other changes the refractive index at the surface.

For experiment [2], the target named is T2, CD16aF (FcγRIIIaF) (UniProt P08637 17-208). The experiment in a line: SPR.
Experiment [3] has as its target T3, CD16aV (FcγRIIIaV) (UniProt P08637 17-208). The experiment in a line: SPR.
The target in experiment [4] is T4, CD32bF (FcγRIIbF) (UniProt P31994 43-217).
T4 chain: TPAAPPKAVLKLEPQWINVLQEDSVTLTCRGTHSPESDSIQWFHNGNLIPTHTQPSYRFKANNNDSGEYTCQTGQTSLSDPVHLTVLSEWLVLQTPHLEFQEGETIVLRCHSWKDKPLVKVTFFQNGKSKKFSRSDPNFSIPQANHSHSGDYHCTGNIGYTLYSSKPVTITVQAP
The experiment in a line: SPR.

Experiment [5] deals with T1, CD32aH (FcγRIIaH). The experiment in a line: SPR.
For experiment [6], the target named is T2, CD16aF (FcγRIIIaF). As to the kind of experiment: SPR. The source holds these as a separate data set.
The target of experiment [7] is T3, CD16aV (FcγRIIIaV). The experiment in a line: SPR. This is another data set of the same source.
The target in experiment [8] is T4, CD32bF (FcγRIIbF). The experiment in a line: SPR.
Experiment [9] has as its target T5, FcγRIA (CD64) (UniProt P12314 16-292).
T5 chain: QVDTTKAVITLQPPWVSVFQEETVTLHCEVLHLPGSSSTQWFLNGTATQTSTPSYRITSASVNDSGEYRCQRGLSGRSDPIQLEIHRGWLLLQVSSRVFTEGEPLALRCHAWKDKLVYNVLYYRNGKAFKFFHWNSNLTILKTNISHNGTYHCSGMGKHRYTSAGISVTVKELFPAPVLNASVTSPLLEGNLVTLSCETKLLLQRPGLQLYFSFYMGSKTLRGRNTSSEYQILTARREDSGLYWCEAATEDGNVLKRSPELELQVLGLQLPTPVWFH
The experiment in a line: SPR; avid.

The target in experiment [10] is T5, FcγRIA (CD64). As to the kind of experiment: SPR.
Experiment [11] has as its target T5, FcγRIA (CD64). As to the kind of experiment: SPR; avid.

T2 sequence (P08637 17-208): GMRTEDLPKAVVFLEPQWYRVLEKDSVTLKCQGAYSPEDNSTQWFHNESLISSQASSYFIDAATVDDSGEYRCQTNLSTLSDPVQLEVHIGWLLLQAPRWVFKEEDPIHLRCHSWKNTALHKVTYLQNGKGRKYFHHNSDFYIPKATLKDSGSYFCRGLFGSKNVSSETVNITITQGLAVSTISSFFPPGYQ
T3 sequence (P08637 17-208 F176V): as the sequence (P08637 17-208) above, with F160V counted along it

B1: TNX02 anti-CD154 monoclonal antibody (antibody)
heavy: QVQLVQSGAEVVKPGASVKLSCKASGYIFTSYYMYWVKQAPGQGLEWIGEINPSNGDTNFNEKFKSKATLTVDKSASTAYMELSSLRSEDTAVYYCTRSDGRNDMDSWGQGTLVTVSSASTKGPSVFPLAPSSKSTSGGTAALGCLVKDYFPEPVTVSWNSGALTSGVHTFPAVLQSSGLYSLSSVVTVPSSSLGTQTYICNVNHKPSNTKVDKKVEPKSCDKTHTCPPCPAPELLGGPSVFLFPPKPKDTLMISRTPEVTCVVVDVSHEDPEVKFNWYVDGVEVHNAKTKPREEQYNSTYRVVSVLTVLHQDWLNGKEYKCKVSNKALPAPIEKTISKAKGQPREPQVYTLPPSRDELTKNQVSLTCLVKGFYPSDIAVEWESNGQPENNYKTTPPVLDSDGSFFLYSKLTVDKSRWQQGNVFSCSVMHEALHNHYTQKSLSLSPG
light: DIVLTQSPATLSVSPGERATISCRASQRVSSSTYSYMHWYQQKPGQPPKLLIKYASNLESGVPARFSGSGSGTDFTLTISSVEPEDFATYYCQHSWEIPPTFGGGTKLEIKRTVAAPSVFIFPPSDEQLKSGTASVVCLLNNFYPREAKVQWKVDNALQSGNSQESVTEQDSKDSTYSLSSTLTLSKADYEKHKVYACEVTHQGLSSPVTKSFNRGEC
Regarding B1, the Kd with CD32aH (FcγRIIaH) [1] is 0.5 µM; with CD16aF (FcγRIIIaF) [2] it was 1.7 µM; with CD16aV (FcγRIIIaV) [3], 0.32 µM; with CD32bF (FcγRIIbF) [4], 0.91 µM; with CD32aH (FcγRIIaH) [5], 0.525 µM; with CD16aF (FcγRIIIaF) [6] it was 1.81 µM. In addition, the Kd was determined as 0.333 µM with CD16aV (FcγRIIIaV) [7], 1.03 µM with CD32bF (FcγRIIbF) [8] and 0.0288 nM with FcγRIA (CD64) [9].

B2: TNX08 anti-CD154 monoclonal antibody (antibody)
heavy: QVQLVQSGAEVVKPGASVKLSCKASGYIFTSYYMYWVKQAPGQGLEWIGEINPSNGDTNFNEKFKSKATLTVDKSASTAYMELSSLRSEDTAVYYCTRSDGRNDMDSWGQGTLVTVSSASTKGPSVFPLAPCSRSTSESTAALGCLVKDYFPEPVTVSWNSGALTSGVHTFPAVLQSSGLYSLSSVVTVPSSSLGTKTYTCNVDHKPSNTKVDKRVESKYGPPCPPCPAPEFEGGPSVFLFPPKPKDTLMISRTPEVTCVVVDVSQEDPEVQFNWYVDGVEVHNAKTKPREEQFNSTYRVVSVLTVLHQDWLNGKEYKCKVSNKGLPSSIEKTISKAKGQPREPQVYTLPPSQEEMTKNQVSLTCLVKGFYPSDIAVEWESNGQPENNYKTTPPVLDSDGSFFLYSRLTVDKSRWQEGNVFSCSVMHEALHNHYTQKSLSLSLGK
light: DIVLTQSPATLSVSPGERATISCRASQRVSSSTYSYMHWYQQKPGQPPKLLIKYASNLESGVPARFSGSGSGTDFTLTISSVEPEDFATYYCQHSWEIPPTFGGGTKLEIKRTVAAPSVFIFPPSDEQLKSGTASVVCLLNNFYPREAKVQWKVDNALQSGNSQESVTEQDSKDSTYSLSSTLTLSKADYEKHKVYACEVTHQGLSSPVTKSFNRGEC
Take B2: the Kd with FcγRIA (CD64) [10] came out at 103 nM; with CD32aH (FcγRIIaH) [5], 9.03 µM; with CD16aF (FcγRIIIaF) [6], 4.44 µM; in the experiment with CD16aV (FcγRIIIaV) [7], 3.56 µM; with CD32bF (FcγRIIbF) [8] it was 4.2 µM.

B3: TNX09 anti-CD154 monoclonal antibody (antibody)
heavy: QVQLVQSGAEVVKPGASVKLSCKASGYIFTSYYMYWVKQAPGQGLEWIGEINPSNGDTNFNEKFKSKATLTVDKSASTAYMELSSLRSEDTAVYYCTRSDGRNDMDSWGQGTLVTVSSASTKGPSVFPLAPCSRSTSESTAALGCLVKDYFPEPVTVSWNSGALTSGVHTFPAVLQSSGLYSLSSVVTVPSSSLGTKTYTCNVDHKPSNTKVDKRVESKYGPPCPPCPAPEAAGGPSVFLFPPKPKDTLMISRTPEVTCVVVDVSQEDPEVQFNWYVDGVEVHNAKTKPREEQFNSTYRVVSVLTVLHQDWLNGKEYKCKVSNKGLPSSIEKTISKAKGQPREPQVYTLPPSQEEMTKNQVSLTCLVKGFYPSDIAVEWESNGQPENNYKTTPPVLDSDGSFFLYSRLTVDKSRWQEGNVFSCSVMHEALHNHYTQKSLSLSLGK
light: DIVLTQSPATLSVSPGERATISCRASQRVSSSTYSYMHWYQQKPGQPPKLLIKYASNLESGVPARFSGSGSGTDFTLTISSVEPEDFATYYCQHSWEIPPTFGGGTKLEIKRTVAAPSVFIFPPSDEQLKSGTASVVCLLNNFYPREAKVQWKVDNALQSGNSQESVTEQDSKDSTYSLSSTLTLSKADYEKHKVYACEVTHQGLSSPVTKSFNRGEC
On to B3, for which the Kd with FcγRIA (CD64) [10] is 147 nM; with CD32aH (FcγRIIaH) [5], above 12 µM; with CD16aF (FcγRIIIaF) [6] it was above 5 µM; with CD16aV (FcγRIIIaV) [7], 3.77 µM; in the experiment with CD32bF (FcγRIIbF) [8] it was above 12 µM.

B4: TNX12 anti-CD154 monoclonal antibody (antibody)
heavy: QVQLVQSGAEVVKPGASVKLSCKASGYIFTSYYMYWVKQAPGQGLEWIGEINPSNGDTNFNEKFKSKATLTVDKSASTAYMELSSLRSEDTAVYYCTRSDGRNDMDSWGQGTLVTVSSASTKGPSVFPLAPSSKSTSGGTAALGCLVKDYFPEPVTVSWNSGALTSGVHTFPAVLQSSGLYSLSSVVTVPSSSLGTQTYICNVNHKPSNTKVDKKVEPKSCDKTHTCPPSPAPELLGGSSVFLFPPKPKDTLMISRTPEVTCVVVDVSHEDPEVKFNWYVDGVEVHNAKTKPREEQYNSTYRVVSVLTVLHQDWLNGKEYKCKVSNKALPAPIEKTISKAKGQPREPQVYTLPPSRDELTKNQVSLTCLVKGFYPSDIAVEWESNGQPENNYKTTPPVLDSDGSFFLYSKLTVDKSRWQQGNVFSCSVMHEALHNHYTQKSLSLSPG
light: DIVLTQSPATLSVSPGERATISCRASQRVSSSTYSYMHWYQQKPGQPPKLLIKYASNLESGVPARFSGSGSGTDFTLTISSVEPEDFATYYCQHSWEIPPTFGGGTKLEIKRTVAAPSVFIFPPSDEQLKSGTASVVCLLNNFYPREAKVQWKVDNALQSGNSQESVTEQDSKDSTYSLSSTLTLSKADYEKHKVYACEVTHQGLSSPVTKSFNRGEC
B4: the Kd with FcγRIA (CD64) [10] was 0.259 nM; with CD32aH (FcγRIIaH) [5] it was above 12 µM; with CD16aF (FcγRIIIaF) [6], above 5 µM; in the experiment with CD16aV (FcγRIIIaV) [7], above 5 µM; in the experiment with CD32bF (FcγRIIbF) [8] it was 8.41 µM.

B5: TNX06 anti-CD154 monoclonal antibody (antibody)
heavy: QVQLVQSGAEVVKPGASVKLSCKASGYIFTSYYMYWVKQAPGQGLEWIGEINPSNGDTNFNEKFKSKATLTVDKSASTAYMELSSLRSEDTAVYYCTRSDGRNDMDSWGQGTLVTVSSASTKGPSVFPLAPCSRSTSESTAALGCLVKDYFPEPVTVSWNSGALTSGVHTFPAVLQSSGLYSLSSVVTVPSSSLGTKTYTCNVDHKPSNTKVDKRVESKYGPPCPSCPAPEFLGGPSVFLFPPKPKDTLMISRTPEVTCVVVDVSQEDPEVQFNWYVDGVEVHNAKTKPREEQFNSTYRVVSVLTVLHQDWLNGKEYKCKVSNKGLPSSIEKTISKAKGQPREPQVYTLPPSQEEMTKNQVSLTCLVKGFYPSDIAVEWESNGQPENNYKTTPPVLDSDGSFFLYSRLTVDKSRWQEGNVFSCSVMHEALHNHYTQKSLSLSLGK
light: DIVLTQSPATLSVSPGERATISCRASQRVSSSTYSYMHWYQQKPGQPPKLLIKYASNLESGVPARFSGSGSGTDFTLTISSVEPEDFATYYCQHSWEIPPTFGGGTKLEIKRTVAAPSVFIFPPSDEQLKSGTASVVCLLNNFYPREAKVQWKVDNALQSGNSQESVTEQDSKDSTYSLSSTLTLSKADYEKHKVYACEVTHQGLSSPVTKSFNRGEC
Take B5: the Kd with FcγRIA (CD64) [10] is 0.285 nM; with CD32aH (FcγRIIaH) [5] it was 3.19 µM; in the experiment with CD16aF (FcγRIIIaF) [6], 3.17 µM; with CD16aV (FcγRIIIaV) [7], 2.09 µM; in the experiment with CD32bF (FcγRIIbF) [8] it was 2.53 µM.

B6: TNX04 anti-CD154 monoclonal antibody (antibody)
heavy: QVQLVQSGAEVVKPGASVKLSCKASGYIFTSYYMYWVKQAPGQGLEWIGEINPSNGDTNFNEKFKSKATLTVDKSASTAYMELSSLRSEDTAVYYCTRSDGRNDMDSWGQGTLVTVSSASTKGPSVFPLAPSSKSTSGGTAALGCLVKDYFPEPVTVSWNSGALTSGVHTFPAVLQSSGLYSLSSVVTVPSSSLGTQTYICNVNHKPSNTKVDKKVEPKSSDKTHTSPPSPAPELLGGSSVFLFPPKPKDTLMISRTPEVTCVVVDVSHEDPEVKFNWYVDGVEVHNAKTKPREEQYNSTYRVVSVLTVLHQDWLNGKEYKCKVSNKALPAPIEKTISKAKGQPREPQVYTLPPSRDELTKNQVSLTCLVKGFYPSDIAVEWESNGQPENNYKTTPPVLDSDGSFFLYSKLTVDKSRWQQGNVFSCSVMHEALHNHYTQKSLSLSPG
light: DIVLTQSPATLSVSPGERATISCRASQRVSSSTYSYMHWYQQKPGQPPKLLIKYASNLESGVPARFSGSGSGTDFTLTISSVEPEDFATYYCQHSWEIPPTFGGGTKLEIKRTVAAPSVFIFPPSDEQLKSGTASVVCLLNNFYPREAKVQWKVDNALQSGNSQESVTEQDSKDSTYSLSSTLTLSKADYEKHKVYACEVTHQGLSSPVTKSFNRGEC
B6: the Kd with CD32aH (FcγRIIaH) [1] was 36.6 µM; with CD16aF (FcγRIIIaF) [2], above 5 µM; with CD16aV (FcγRIIIaV) [3] it was 18.7 µM; with CD32bF (FcγRIIbF) [4] it was 18 µM; with FcγRIA (CD64) [9], 0.309 nM; with FcγRIA (CD64) [11], 0.33 nM.

B7: TNX11 anti-CD154 monoclonal antibody (antibody)
heavy: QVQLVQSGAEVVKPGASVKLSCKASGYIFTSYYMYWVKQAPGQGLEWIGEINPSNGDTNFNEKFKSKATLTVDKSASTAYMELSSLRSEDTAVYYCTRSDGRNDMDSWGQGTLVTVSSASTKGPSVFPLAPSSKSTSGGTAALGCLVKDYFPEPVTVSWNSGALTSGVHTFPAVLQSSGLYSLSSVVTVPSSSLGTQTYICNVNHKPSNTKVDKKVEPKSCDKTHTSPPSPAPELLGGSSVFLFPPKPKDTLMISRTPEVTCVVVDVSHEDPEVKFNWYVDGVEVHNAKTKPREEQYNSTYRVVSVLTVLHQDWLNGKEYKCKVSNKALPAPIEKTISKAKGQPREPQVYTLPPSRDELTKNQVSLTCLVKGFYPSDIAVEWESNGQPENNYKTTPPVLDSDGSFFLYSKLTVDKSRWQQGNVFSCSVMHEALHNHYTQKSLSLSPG
light: DIVLTQSPATLSVSPGERATISCRASQRVSSSTYSYMHWYQQKPGQPPKLLIKYASNLESGVPARFSGSGSGTDFTLTISSVEPEDFATYYCQHSWEIPPTFGGGTKLEIKRTVAAPSVFIFPPSDEQLKSGTASVVCLLNNFYPREAKVQWKVDNALQSGNSQESVTEQDSKDSTYSLSSTLTLSKADYEKHKVYACEVTHQGLSSPVTKSFNRGEC
In the case of B7, the dissociation constant (Kd) in the experiment with FcγRIA (CD64) [10] was 0.479 nM; with CD32aH (FcγRIIaH) [5] it was above 12 µM; in the experiment with CD16aF (FcγRIIIaF) [6], above 5 µM; with CD16aV (FcγRIIIaV) [7], above 5 µM; with CD32bF (FcγRIIbF) [8], above 12 µM.

B8: TNX01 anti-CD154 monoclonal antibody (antibody)
heavy: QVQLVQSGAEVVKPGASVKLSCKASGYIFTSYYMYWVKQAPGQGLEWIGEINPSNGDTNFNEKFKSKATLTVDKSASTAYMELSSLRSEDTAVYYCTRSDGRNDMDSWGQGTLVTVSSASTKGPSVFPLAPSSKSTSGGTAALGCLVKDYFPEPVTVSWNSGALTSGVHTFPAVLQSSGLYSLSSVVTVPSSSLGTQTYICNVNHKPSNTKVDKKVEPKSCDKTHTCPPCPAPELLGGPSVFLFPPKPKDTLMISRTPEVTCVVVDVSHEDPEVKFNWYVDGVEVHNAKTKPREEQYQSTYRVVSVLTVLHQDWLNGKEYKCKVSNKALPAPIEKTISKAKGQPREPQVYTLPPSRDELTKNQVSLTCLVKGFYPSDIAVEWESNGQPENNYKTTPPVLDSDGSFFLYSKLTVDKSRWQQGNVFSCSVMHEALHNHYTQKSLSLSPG
light: DIVLTQSPATLSVSPGERATISCRASQRVSSSTYSYMHWYQQKPGQPPKLLIKYASNLESGVPARFSGSGSGTDFTLTISSVEPEDFATYYCQHSWEIPPTFGGGTKLEIKRTVAAPSVFIFPPSDEQLKSGTASVVCLLNNFYPREAKVQWKVDNALQSGNSQESVTEQDSKDSTYSLSSTLTLSKADYEKHKVYACEVTHQGLSSPVTKSFNRGEC
Take B8: the Kd with CD32aH (FcγRIIaH) [1] was above 12 µM; with CD16aF (FcγRIIIaF) [2], above 5 µM; with CD16aV (FcγRIIIaV) [3] it was above 5 µM; with CD32bF (FcγRIIbF) [4] it was above 12 µM; with FcγRIA (CD64) [9] it was 56 nM; with FcγRIA (CD64) [11], 76.5 nM.

B9: TNX07 anti-CD154 monoclonal antibody (antibody)
heavy: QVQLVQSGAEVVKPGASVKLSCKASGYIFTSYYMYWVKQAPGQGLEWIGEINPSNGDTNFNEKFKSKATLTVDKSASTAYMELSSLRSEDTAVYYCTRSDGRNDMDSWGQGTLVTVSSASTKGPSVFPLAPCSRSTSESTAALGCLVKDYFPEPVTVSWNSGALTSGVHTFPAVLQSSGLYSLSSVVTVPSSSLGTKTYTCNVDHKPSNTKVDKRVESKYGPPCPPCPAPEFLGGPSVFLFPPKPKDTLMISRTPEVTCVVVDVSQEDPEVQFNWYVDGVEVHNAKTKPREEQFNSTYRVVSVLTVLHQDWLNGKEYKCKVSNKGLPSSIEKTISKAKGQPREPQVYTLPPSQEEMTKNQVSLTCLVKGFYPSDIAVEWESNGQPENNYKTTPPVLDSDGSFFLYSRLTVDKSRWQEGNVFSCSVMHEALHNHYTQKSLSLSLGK
light: DIVLTQSPATLSVSPGERATISCRASQRVSSSTYSYMHWYQQKPGQPPKLLIKYASNLESGVPARFSGSGSGTDFTLTISSVEPEDFATYYCQHSWEIPPTFGGGTKLEIKRTVAAPSVFIFPPSDEQLKSGTASVVCLLNNFYPREAKVQWKVDNALQSGNSQESVTEQDSKDSTYSLSSTLTLSKADYEKHKVYACEVTHQGLSSPVTKSFNRGEC
Consider B9, for which the Kd with FcγRIA (CD64) [10] is 0.253 nM; in the experiment with CD32aH (FcγRIIaH) [5] it was 3.01 µM; with CD16aF (FcγRIIIaF) [6], 3.66 µM; with CD16aV (FcγRIIIaV) [7], 3.01 µM; with CD32bF (FcγRIIbF) [8], 2.45 µM.

B10: TNX10 anti-CD154 monoclonal antibody (antibody)
heavy: not shown
light: DIVLTQSPATLSVSPGERATISCRASQRVSSSTYSYMHWYQQKPGQPPKLLIKYASNLESGVPARFSGSGSGTDFTLTISSVEPEDFATYYCQHSWEIPPTFGGGTKLEIKRTVAAPSVFIFPPSDEQLKSGTASVVCLLNNFYPREAKVQWKVDNALQSGNSQESVTEQDSKDSTYSLSSTLTLSKADYEKHKVYACEVTHQGLSSPVTKSFNRGEC
With B10, the Kd with FcγRIA (CD64) [10] is 68.7 nM; in the experiment with CD32aH (FcγRIIaH) [5], above 12 µM; with CD16aF (FcγRIIIaF) [6] it was above 5 µM; with CD16aV (FcγRIIIaV) [7] it was 4.63 µM; with CD32bF (FcγRIIbF) [8], above 12 µM.

B11: TNX13 anti-CD154 monoclonal antibody (antibody)
heavy: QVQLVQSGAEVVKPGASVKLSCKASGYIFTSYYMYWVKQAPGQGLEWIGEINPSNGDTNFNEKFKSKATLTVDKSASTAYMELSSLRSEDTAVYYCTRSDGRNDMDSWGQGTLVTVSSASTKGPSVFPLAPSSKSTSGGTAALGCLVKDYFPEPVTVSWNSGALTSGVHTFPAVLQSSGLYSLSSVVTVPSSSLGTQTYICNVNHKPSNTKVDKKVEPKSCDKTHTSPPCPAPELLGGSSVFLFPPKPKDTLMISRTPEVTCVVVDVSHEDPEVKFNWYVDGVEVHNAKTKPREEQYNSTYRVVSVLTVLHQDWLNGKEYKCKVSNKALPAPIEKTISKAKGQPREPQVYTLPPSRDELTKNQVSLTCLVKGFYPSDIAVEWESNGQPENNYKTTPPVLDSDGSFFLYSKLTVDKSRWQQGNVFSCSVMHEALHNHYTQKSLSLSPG
light: DIVLTQSPATLSVSPGERATISCRASQRVSSSTYSYMHWYQQKPGQPPKLLIKYASNLESGVPARFSGSGSGTDFTLTISSVEPEDFATYYCQHSWEIPPTFGGGTKLEIKRTVAAPSVFIFPPSDEQLKSGTASVVCLLNNFYPREAKVQWKVDNALQSGNSQESVTEQDSKDSTYSLSSTLTLSKADYEKHKVYACEVTHQGLSSPVTKSFNRGEC
As for B11, the Kd was 0.222 nM in the experiment with FcγRIA (CD64) [10]; 8.95 µM with CD32aH (FcγRIIaH) [5]; above 5 µM with CD16aF (FcγRIIIaF) [6]; above 5 µM in the experiment with CD16aV (FcγRIIIaV) [7]; 5.84 µM in the experiment with CD32bF (FcγRIIbF) [8].

B12: TNX05 anti-CD154 monoclonal antibody (antibody)
heavy: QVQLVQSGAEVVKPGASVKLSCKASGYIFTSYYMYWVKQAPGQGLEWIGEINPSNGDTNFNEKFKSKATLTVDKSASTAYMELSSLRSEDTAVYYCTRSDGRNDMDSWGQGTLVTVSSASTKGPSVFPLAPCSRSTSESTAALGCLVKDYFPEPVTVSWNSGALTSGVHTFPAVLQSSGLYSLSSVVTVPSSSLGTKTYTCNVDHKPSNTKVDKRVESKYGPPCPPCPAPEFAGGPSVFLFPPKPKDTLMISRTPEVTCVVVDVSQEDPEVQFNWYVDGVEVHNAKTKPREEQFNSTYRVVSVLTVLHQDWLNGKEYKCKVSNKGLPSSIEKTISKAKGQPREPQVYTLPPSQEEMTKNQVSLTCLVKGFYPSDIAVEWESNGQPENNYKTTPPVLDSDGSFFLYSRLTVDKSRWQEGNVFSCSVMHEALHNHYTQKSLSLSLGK
light: DIVLTQSPATLSVSPGERATISCRASQRVSSSTYSYMHWYQQKPGQPPKLLIKYASNLESGVPARFSGSGSGTDFTLTISSVEPEDFATYYCQHSWEIPPTFGGGTKLEIKRTVAAPSVFIFPPSDEQLKSGTASVVCLLNNFYPREAKVQWKVDNALQSGNSQESVTEQDSKDSTYSLSSTLTLSKADYEKHKVYACEVTHQGLSSPVTKSFNRGEC
Take B12: the Kd in the experiment with CD32aH (FcγRIIaH) [1] came to 7.17 µM; with CD16aF (FcγRIIIaF) [2], 8.11 µM; with CD16aV (FcγRIIIaV) [3] it was 6.04 µM; with CD32bF (FcγRIIbF) [4], 4.9 µM; with FcγRIA (CD64) [9], 8.8 nM; with FcγRIA (CD64) [11] it was 8.7 nM.
